Data published in publication PMC3030945 (The Journal of Membrane Biology, 2010).

Columns and labels:
[1] = type: physicochemical; details: all lipid mixtures; van't Hoff analysis of CD partitioning data
[2] = CD titration of melittin with SUVs: free energy of partitioning; type: physicochemical; details: 5 mM lipid, estimated from measured partitioning free energy ΔG
[3] = Isothermal titration calorimetry: enthalpy of melittin partitioning into SUVs; type: physicochemical; details: POPC SUVs, 25°C; ITC, 10 μl of 100 μM melittin into 5 mM lipid
[4] = cited from earlier work
[5] = Isothermal titration calorimetry: enthalpy of melittin partitioning into LUVs; type: physicochemical; details: for −TΔS: from ΔG = ΔH − TΔS, ± joint confidence limits
[6] = CD spectroscopy: helical content of membrane-bound melittin; type: physicochemical; details: for peptide helical fraction f α: 25°C, CD molar ellipticity at 222 nm
[7] = various methods, mole-fraction partition coefficients, ref Beschiaschvili and Baeuerle 1991, Kuchinka and Seelig 1989, Ladokhin et al. 2000, Ladokhin and White 1999, Schwarz and Beschiaschvili 1989, Vogel 1981; cited from earlier work
[8] = Hydrophobic-effect free energy ΔG hϕ calculated from measured heat capacity; type: physicochemical; details: for hydrophobic free energy ΔG hϕ: calculated from measured heat capacity

## melittin
[1]
  heat capacity change: approximately −0.5 kcal mol^−1 K^−1
[2]
  fraction of melittin bound: 95%
[3]
  enthalpy change, before corrections: ≈ −10 kcal mol^−1
[4]; formal peptide charge as stated, no reference given
  electrical valence (formal valence): 5–6
[4]; literature value, ref Beschiaschvili and Baeuerle 1991
  effective charge: ≈ 2
[5]; LUVs at different lipid content, slope of enthalpy vs temperature (Fig. 4b)
  change of heat capacity: about −0.5 kcal/molK
[5]; POPC 50%:POPG 50% LUVs, 25°C
  −TΔS: −2.8 (±1) kcal mol^−1
[5]; POPC 50%:POPG 50% LUVs, 40°C
  −TΔS: 3.08 (±1) kcal mol^−1
[5]; POPC 50%:POPG 50% LUVs, 50°C
  −TΔS: 8.73 (±1.1) kcal mol^−1
[5]; POPC 50%:POPG 50% LUVs, 60°C
  −TΔS: 16.99 (±1.5) kcal mol^−1
[5]; POPC 75%:POPG 25% LUVs, 25°C
  −TΔS: −4.42 (±0.6) kcal mol^−1
[5]; POPC 75%:POPG 25% LUVs, 40°C
  −TΔS: 3.24 (±0.8) kcal mol^−1
[5]; POPC 75%:POPG 25% LUVs, 50°C
  −TΔS: 8.32 (±0.4) kcal mol^−1
[5]; POPC 75%:POPG 25% LUVs, 60°C
  −TΔS: 15.06 (±1.1) kcal mol^−1
[5]; POPC 90%:POPG 10% LUVs, 25°C
  −TΔS: −5.9 (±1.5) kcal mol^−1
[5]; POPC 90%:POPG 10% LUVs, 40°C
  −TΔS: −2.25 (±0.9) kcal mol^−1
[5]; POPC 90%:POPG 10% LUVs, 50°C
  −TΔS: 3.3 (±1) kcal mol^−1
[5]; POPC 90%:POPG 10% LUVs, 60°C
  −TΔS: 5.73 (±1.1) kcal mol^−1
[5]; POPC 100%:POPG 0% LUVs, 40°C
  −TΔS: −12.3 (±1.6) kcal mol^−1
[5]; POPC 100%:POPG 0% LUVs, 50°C
  −TΔS: −6.2 (±1.4) kcal mol^−1
[5]; POPC 100%:POPG 0% LUVs, 60°C
  −TΔS: −3.2 (±1.3) kcal mol^−1
[5]; all lipid mixtures (POPC:POPG 0–50% POPG), independent of lipid composition
  heat capacity associated with partitioning: about −0.5 kcal mol^−1 K^−1
[6]; POPC50:POPG50, 5°C, CD
  fraction of peptide bound: ≈ 0.57
[6]; POPC50:POPG50 LUVs
  peptide helical fraction f α: 0.71
[6]; POPC75:POPG25 LUVs
  peptide helical fraction f α: 0.73
[6]; POPC90:POPG10 LUVs
  peptide helical fraction f α: 0.71
[6]; POPC LUVs, Luo and Baldwin formula
  peptide helical fraction f α: 0.71
[6]; melittin bound to a lipid membrane at 25°C, CD
  α-helical content: ~ 70%
[6]; pure POPC, 5°C, CD
  helical fraction of peptide (or the fraction of peptide bound): ≈ 0.57
[6]; pure POPC, 60°C, CD
  fraction of peptide bound: ≈ 0.63
[7]
  free energy of partitioning of unfolded melittin into the bilayer interface of POPC vesicles: −6 to −7 kcal mol^−1
[8]; POPC
  T h (temperature at which ΔH hϕ has a bulk-phase transfer value of 0): 326 K
  T s (temperature at which ΔS hϕ has a bulk-phase transfer value of 0): 336 K
[8]; POPC50:POPG50
  T h: 292 K
  T s: 305 K
[8]; POPC50:POPG50, 25°C
  hydrophobic free energy ΔG hϕ: −7.50 (±0.52) kcal mol^−1
[8]; POPC75:POPG25
  T h: 294 K
  T s: 306 K
[8]; POPC75:POPG25, 25°C
  hydrophobic free energy ΔG hϕ: −6.87 (±0.30) kcal mol^−1
[8]; POPC90:POPG10
  T h: 296 K
  T s: 316 K
[8]; POPC90:POPG10, 25°C
  hydrophobic free energy ΔG hϕ: −6.68 (±0.22) kcal mol^−1
[8]; POPC, 25°C
  contribution of the hydrophobic effect to the total free energy: approximately 79%
  hydrophobic free energy ΔG hϕ: −4.88 (±2.83) kcal mol^−1
